Consider two molecules from patent US20210246217A1 (LEADARTIS S L, published 2021).

Test [1] addresses murine 4-1BB on the cell surface (mouse) (UniProt P20334). Put plainly: cell-based or functional assay.
For test [2], the target named is T1, recombinant mouse TNFSF9 (4-1BBL) (mouse, UniProt P41274 104-309, limits assumed).
T1 construct: It was detected through a tag in FACS and carried the CF488A label in RICS; also called m4-1BBL; recombinant soluble mouse 4-1BBL
T1 sequence (looked up): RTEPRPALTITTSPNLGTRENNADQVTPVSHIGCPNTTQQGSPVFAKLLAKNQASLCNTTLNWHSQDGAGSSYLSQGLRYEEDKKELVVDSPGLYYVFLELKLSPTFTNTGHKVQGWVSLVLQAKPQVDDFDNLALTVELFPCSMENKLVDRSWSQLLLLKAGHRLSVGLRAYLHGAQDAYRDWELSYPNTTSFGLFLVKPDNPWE
Kind of test: competition ELISA on immobilized m4-1BB. The procedure: Both m4-1BB (3 μg/ml) or hEGFR (5 μg/ml) were immobilized on Maxisorp ELISA plates (NUNC Brand Products, Roskilde, Denmark) overnight at 4° C. After washing and blocking with 200 μl PBS-5% BSA, 100 μl of conditioned media or purified protein solution at 1 μg/ml were added and incubated for 1 hour at room temperature. The wells were washed for three times with PBS0.05% Tween-20, and 100 μl of anti-c-myc mAh or anti-FLAG mAh were added for 1 hour incubation at room temperature. The plate was washed as above described and 100 μl of HRP-conjugated goat anti-mouse IgG were added to each well. Afterwards, the plate was washed and developed using OPD (Sigma-Aldrich). For competition ELISA, m4-1BB (3 μg/ml) was immobilized overnight at 4° C. After washing and blocking, recombinant m4-1BBL was added at desired concentration to the wells for 1 hour. Afterwards, purified antibody solution was serially diluted in blocking buffer, added to the wells and incubated for 1 hour at room temperature. Following standard washing steps, anti-FLAG mAh solution was added for 1 hour. After washing HRP-conjugated goat anti-mouse IgG was added and developed using OPD.

In test [3] the target is T2, human CEA (hCEA) (human, UniProt P06731 35-685, limits assumed).
T2 construct: also called carcinoembryonic antigen
T2 sequence (looked up): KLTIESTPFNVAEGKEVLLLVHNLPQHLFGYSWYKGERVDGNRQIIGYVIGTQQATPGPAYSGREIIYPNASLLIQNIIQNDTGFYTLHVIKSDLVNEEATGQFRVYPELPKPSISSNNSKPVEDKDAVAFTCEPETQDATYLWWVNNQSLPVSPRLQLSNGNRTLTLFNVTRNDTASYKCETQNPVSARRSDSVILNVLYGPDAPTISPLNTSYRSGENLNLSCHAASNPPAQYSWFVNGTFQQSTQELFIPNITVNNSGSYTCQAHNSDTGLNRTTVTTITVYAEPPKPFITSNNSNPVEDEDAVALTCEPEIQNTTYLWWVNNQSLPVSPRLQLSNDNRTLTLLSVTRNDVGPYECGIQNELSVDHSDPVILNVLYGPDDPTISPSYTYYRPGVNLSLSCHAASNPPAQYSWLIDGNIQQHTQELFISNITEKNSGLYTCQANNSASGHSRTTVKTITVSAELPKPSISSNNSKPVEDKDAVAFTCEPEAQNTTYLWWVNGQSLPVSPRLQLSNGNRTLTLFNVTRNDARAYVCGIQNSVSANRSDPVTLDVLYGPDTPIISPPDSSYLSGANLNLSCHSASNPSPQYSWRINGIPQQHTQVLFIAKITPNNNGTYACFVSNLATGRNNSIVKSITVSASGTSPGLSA
Put plainly: BLI, m4-1BB-coated biosensors, hCEA in solution. The procedure: FIG. 26. Functional characterization of purified 1D8^{N/C}CEA.1 trimerbody. Biolayer interferometry (BLI)-derived sensorgrams from the interactions between immobilized m4-1BB and 1D8^{N/C}CEA. 1 at 4 or 2 nM. Experimental responses are traced in black, and fitting curves are in gray (A). […] 1 bispecificity towards biosensors coated with m4-1BB and hCEA in solution (B and C). Following association with either 1D8^{N/C}CEA.1 or 1D8^N18 (sample indicated with arrows) or kinetics buffer only (sample indicated with arrows), biosensors were transferred into 50 nM of hCEA (black and red) or kinetics buffer only (blue and green).
The ability of 1D8^{N/C}CEA.1 to bind biosensor-immobilized m4-1BB and hCEA in solution at the same time was investigated using biolayer interferometry (BLI) on an Octet RED96 system (Fortebio, Menlo Park, Calif., USA). AR2G biosensors (Fortebio) were activated using s-NHS and EDC, and then coated with 10 μg/mL m4-1BB in 10 mM sodium acetate at pH 6 for 20 minutes, followed by quenching with ethanolamine. After 10 minutes of equilibration in kinetics buffer (PBS with 0.1% BSA and 0.05% Tween20), the coated biosensors were incubated in kinetics buffer containing 4 nM of 1D8^N18, 1D8^{N/C}CEA. 1, or only kinetics buffer for one hour. […]

In test [1], “rat IgG2a anti-mouse 4-1BB (clone 1D8) (antibody)” yielded a lateral mobility at the plasma membrane (diffusion coefficient, RICS), before clustering of 1.5 µm^2/sec and a lateral mobility at the plasma membrane (diffusion coefficient, RICS), in clusters of 0.35 µm^2/sec.

B1: mouse 4-1BB:hFc chimera (m4-1BB) (Fc fusion, UniProt P20334 24-187, looked up)
chain: VQNSCDNCQPGTFCRKYNPVCKSCPPSTFSSIGGQPNCNICRVCAGYFRFKKFCSSTHNAECECIEGFHCLGPQCTRCEKDCRPGQELTKQGCKTCSLGTFNDQNGTGVCRPWTNCSLDGRSVLKTGTTEKDVVCGPPVVSFSPSTTISVTPEGGPGGHSLQVL
notes: Bought from R&D Systems; also called murine 4-1BB in fusion with human Fc; not shown: human Fc
For the molecule B1, the figures for the binding result in test [2] and in test [3] were “binds” and “no binding (tested: 50 nM of hCEA)”, respectively.
